Experimental findings from paper PMC10679481 are described below.

Assay [1] concerns the target PKA-C-eGFP (UniProt P17612). Put plainly: co-IP; nanobead-based sc-SiMPull: single HEK293T cells trapped in microwells and lysed in situ, anti-GFP-coated magnetic nanobeads capture PKA-C-eGFP, mCherry seen directly by confocal microscopy; control conditions (no cAMP); room temperature.
In assay [2] the target is PKA-C-eGFP (UniProt P17612). Briefly: co-IP; nanobead-based sc-SiMPull: single HEK293T cells coexpressing PKA-C-eGFP and PKA-R-HA lysed in situ in microwells, anti-GFP-coated nanobeads, PKA-R-HA visualised by immunostaining with anti-HA and fluorophore-conjugated 2nd antibody.

Regarding “PKA-R-mCherry (from UniProt P10644 1-381) (natural protein)”, the percent of GFP and mCherry signals colocalized with PKA-C-eGFP [1] was found to be 70%.

In the assay with PKA-C-eGFP [2], “PKA-R-HA (from UniProt P10644 1-381) (natural protein)” registered a percent of GFP spots colocalized with the anti-HA (Alexa 561) spots of 60%.
